{"source": "paper PMC4670574", "about": "(2016)", "binders": {"B1": {"name": "Pin1 isolated PPIase domain PPIase domain (protein)", "chain": "PARVRCSHLLVKHSQSRRPSSWRQEKITRTKEEALELINGYIQKIKSGEEDFESLASQFSDCSSAKARGDLGAFSRGQMQKPFEDASFALRTGEMSGPVFTDSGIHIILRTE"}}, "molecular_target": "T1, pCdc25C phosphopeptide (Homo sapiens)", "T1 chain": "EQPL[pT]PVTDL", "assay": "ITC", "note": "Square brackets hold non-standard residues; d marks the D form. Ends that are not written are not given here. pT = C[C@@H](OP(=O)(O)O)[C@H](N)C(=O)O", "data": [{"binder": "B1", "values": [{"measurement": "Kd", "result": "> 1000", "unit": "µM"}]}]}
